According to US20200332015A1 (NAMAB THERAPEUTICS, published 2020):
Several values for one entry are separate records, joined by “and”; a condition that tells them apart may be missing. Equal entries are not always repeated. Where two headings read alike, the source gives them in different places.

T1: mouse Fc-tagged mouse CD137 (R&D Systems, cat. 937-4B-050) (mouse, UniProt P20334 24-187)
T1 construct: also called mouse CD137-Fc chimeric protein
T1 sequence (looked up): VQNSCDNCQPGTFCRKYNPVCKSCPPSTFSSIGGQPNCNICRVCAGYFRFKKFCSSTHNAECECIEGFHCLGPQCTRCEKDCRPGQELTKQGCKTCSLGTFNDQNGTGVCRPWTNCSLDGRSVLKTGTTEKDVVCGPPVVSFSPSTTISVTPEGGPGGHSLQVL

B1: PRO1060 (33-03-G02 IgG1 HC with 38_02_A04 sc01 scFv, PDL1/CD137(scFv) silent Morrison) (bispecific antibody)
light: DIQMTQSPSSLSASVGDRVTITCQASQSINDYLAWYQQKPGKAPKLLIYKASTLASGVPSRFSGSGSGTDFTLTISSLQPEDFATYYCQQGYIITDIDNVFGTGTKVTVLGTVAAPSVFIFPPSDEQLKSGTASVVCLLNNFYPREAKVQWKVDNALQSGNSQESVTEQDSKDSTYSLSSTLTLSKADYEKHKVYACEVTHQGLSSPVTKSFNRGEC
heavy: QVQLQESGPGLVKPSETLSLTCKVSGFSFSSGYDMCWIRQPPGKGLEWIGCVVAGSVDITYYASWAKGRVTISVDSSKNQFSLKLSSVTAADTAVYYCARKDAYSDAFNLWGQGTLVTVSSASTKGPSVFPLAPSSKSTSGGTAALGCLVKDYFPEPVTVSWNSGALTSGVHTFPAVLQSSGLYSLSSVVTVPSSSLGTQTYICNVNHKPSNTKVDKRVEPKSCDKTHTCPPCPAPEAAGGPSVFLFPPKPKDTLMISRTPEVTCVVVDVSHEDPEVKFNWYVDGVEVHNAKTKPREEQYNSTYRVVSVLTVLHQDWLNGKEYKCKVSNKALGAPIEKTISKAKGQPREPQVYTLPPSREEMTKNQVSLTCLVKGFYPSDIAVEWESNGQPENNYKTTPPVLDSDGSFFLYSKLTVDKSRWQQGNVFSCSVMHEALHNHYTQKSLSLSPGKGGGGSGGGGSIQMTQSPSSLSASVGDRVTITCQASQSINNVLAWYQQKPGKAPKLLIYRASTLASGVPSRFSGSGSGTDFTLTISSLQPEDFATYYCQSSYGNYGDFGTGTKVTVLGGGGGSGGGGSGGGGSGGGGSQVQLQESGPGLVKPSETLSLTCKVSGFSFSNSYWICWIRQPPGKGLEWIGCTFVGSSDSTYYANWAKGRVTISVDSSKNQFSLKLSSVTAADTAVYYCARHPSDAVYGYANNLWGQGTLVTVSS
notes: IgG1 with scFv fused to the heavy chain; called bivalent; also called Morrison-H
B2: PRO951 (38-27-C05 sc02 scDb-i/33-03-G02 sc01 scDb-o) (bispecific antibody)
chain: DIQMTQSPSSLSASVGDRVTITCQASQSINDYLAWYQQKPGKAPKLLIYKASTLASGVPSRFSGSGSGTDFTLTISSLQPEDFATYYCQQGYIITDIDNVFGTGTKVTVLGGGGGSEVQLVESGGGLVQPGGSLRLSCAASGFSFNNDYDMCWVRQAPGKGLEWIGCIDTGDGSTYYASWAKGRFTISRDNSKNTVYLQMNSLRAEDTAVYYCAREAASSSGYGMGYFDLWGQGTLVTVSSGGGGSGGGGSGGGGSGGGGSIQMTQSPSSLSASVGDRVTITCQSSQSVYDNNWLAWYQQKPGKAPKLLIYRASNLASGVPSRFSGSGSGTDFTLTISSLQPEDFATYYCQGTYLSSNWYWAFGTGTKVTVLGGGGGSQVQLQESGPGLVKPSETLSLTCKVSGFSFSSGYDMCWIRQPPGKGLEWIGCVVAGSVDITYYASWAKGRVTISVDSSKNQFSLKLSSVTAADTAVYYCARKDAYSDAFNLWGQGTLVTVSS
notes: scDb, PDL1 x CD137
B3: PRO1059 (33-03-G02 IgG1 LC with 38_02_A04 sc01 scFv, PDL1/CD137(scFv) silent Morrison) (bispecific antibody)
light: DIQMTQSPSSLSASVGDRVTITCQASQSINDYLAWYQQKPGKAPKLLIYKASTLASGVPSRFSGSGSGTDFTLTISSLQPEDFATYYCQQGYIITDIDNVFGTGTKVTVLGTVAAPSVFIFPPSDEQLKSGTASVVCLLNNFYPREAKVQWKVDNALQSGNSQESVTEQDSKDSTYSLSSTLTLSKADYEKHKVYACEVTHQGLSSPVTKSFNRGECGGGGSGGGGSIQMTQSPSSLSASVGDRVTITCQASQSINNVLAWYQQKPGKAPKLLIYRASTLASGVPSRFSGSGSGTDFTLTISSLQPEDFATYYCQSSYGNYGDFGTGTKVTVLGGGGGSGGGGSGGGGSGGGGSQVQLQESGPGLVKPSETLSLTCKVSGFSFSNSYWICWIRQPPGKGLEWIGCTFVGSSDSTYYANWAKGRVTISVDSSKNQFSLKLSSVTAADTAVYYCARHPSDAVYGYANNLWGQGTLVTVSS
heavy: QVQLQESGPGLVKPSETLSLTCKVSGFSFSSGYDMCWIRQPPGKGLEWIGCVVAGSVDITYYASWAKGRVTISVDSSKNQFSLKLSSVTAADTAVYYCARKDAYSDAFNLWGQGTLVTVSSASTKGPSVFPLAPSSKSTSGGTAALGCLVKDYFPEPVTVSWNSGALTSGVHTFPAVLQSSGLYSLSSVVTVPSSSLGTQTYICNVNHKPSNTKVDKRVEPKSCDKTHTCPPCPAPEAAGGPSVFLFPPKPKDTLMISRTPEVTCVVVDVSHEDPEVKFNWYVDGVEVHNAKTKPREEQYNSTYRVVSVLTVLHQDWLNGKEYKCKVSNKALGAPIEKTISKAKGQPREPQVYTLPPSREEMTKNQVSLTCLVKGFYPSDIAVEWESNGQPENNYKTTPPVLDSDGSFFLYSKLTVDKSRWQQGNVFSCSVMHEALHNHYTQKSLSLSPGK
notes: IgG1 with scFv fused to the light chain; also called Morrison-L
B4: urelumab (antibody, V domains shown)
VH: QVQLQQWGAGLLKPSETLSLTCAVYGGSFSGYYWSWIRQSPEKGLEWIGEINHGGYVTYNPSLESRVTISVDTSKNQFSLKLSSVTAADTAVYYCARDYGPGNYDWYFDLWGRGTLVTVSS
VL: EIVLTQSPATLSLSPGERATLSCRASQSVSSYLAWYQQKPGQAPRLLIYDASNRATGIPARFSGSGSGTDFTLTISSLEPEDFAVYYCQQRSNWPPALTFGGGTKVEIK

Key:
[1] = target: T2, human CD137 expressed on Jurkat cells (human, UniProt Q07011 24-255); assay: cell-based or functional assay
[2] = target: T2, human CD137 expressed on Jurkat cells; assay: cell-based or functional assay; remark: listed apart in the source
[3] = target: T2, human CD137 expressed on Jurkat cells; assay: cell-based or functional assay; remark: listed apart in the source
[4] = target: T2, human CD137 expressed on Jurkat cells; assay: cell-based or functional assay; remark: listed apart in the source
[5] = target: T3, recombinant human CD137 extracellular domain (Peprotech, cat. 310-15-1MG) (human, UniProt Q07011 24-186); assay: SPR T200, Morrison format captured, ECD analyte
T3 construct: also called human CD137 ECD; CD137 ECD
Method: (§1) Affinity to PDL1 of the different species was determined by SPR measurements using a Biacore T200 device (GE Healthcare). An antibody specific for the Fc region of human IgGs was immobilized on a sensor chip (CM5 sensor chip, GE Healthcare) by amine-coupling. For all formats, with the exception of the Fc containing Morrison formats, PDL1-Fc chimeric protein from different species were captured by the immobilized antibody. Three-fold serial dilutions of the molecules specific for PDL1 (0.12-90 nM) were injected into the flow cells for three minutes and dissociation was monitored for 10 minutes. After each injection cycle, surfaces were regenerated with one injection of a 3 M MgCl₂ solution. The apparent dissociation (kd) and association (kₐ) rate constants and the apparent dissociation equilibrium constant (KD) were calculated using one-to-one Langmuir binding model. Affinity to CD137 of the different species was determined using the identical setup as for PDL1 with the exception that CD137-Fc chimeric proteins from different species were captured by the immobilized antibody.
(§2) The Fc containing formats were directly captured by the antibody specific for the Fc region of human IgGs. Two-fold serial dilutions of PDL1 extracellular domain or CD137 extracellular domain ranging from 90 to 0.35 nM were tested for binding to the IgG captured on the biosensor chip. After each injection cycle, surfaces were regenerated with one injection of a 3 M MgCl2 solution.

[6] = target: T4, human PDL1 extracellular domain (human, UniProt Q9NZQ7 19-238); assay: SPR T200, Morrison format captured, ECD analyte
T4 construct: extracellular domain; Analyte for the Fc containing Morrison formats
Method: as §1, §2

[7] = target: T2, human CD137 expressed on Jurkat cells; assay: cell-based or functional assay; remark: listed apart in the source
[8] = target: human PDL1-Fc chimeric protein (human, UniProt Q9NZQ7 19-238, limits assumed); assay: SPR T200, antigen-Fc captured, molecule as analyte
How it was run: (§3)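 Biacore T200: anti-Fc antibody amine-coupled on CM5 chip captures chimeras of different species. Molecules injected as three-fold dilutions (0.12-90 nM) for 3 min, dissociation 10 min, 3 M MgCl₂ regeneration. Apparent ka, kd and KD from 1:1 Langmuir fit.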

[9] = target: T5, Fc tagged human CD137 (R&D Systems, cat. 838-4B-100) (human, UniProt Q07011 24-186); assay: SPR T200, antigen-Fc captured, molecule as analyte
T5 construct: also called CD137 Fc chimera; human CD137-Fc chimeric protein
How it was run: as §3

[10] = target: T6, cynomolgus monkey Fc-tagged CD137 (R&D Systems, cat. 9324-4B-100) (cynomolgus monkey, UniProt A9YYE7 24-186); assay: SPR T200, antigen-Fc captured, molecule as analyte
T6 construct: also called cynomolgus CD137-Fc chimeric protein
How it was run: as §3

[11] = target: T1, mouse Fc-tagged mouse CD137 (R&D …); assay: SPR T200, antigen-Fc captured, molecule as analyte
How it was run: as §3

[12] = target: T2, human CD137 expressed on Jurkat cells; assay: cell-based or functional assay; remark: listed apart in the source
[13] = target: T2, human CD137 expressed on Jurkat cells; assay: cell-based or functional assay; remark: listed apart in the source
[14] = target: T2, human CD137 expressed on Jurkat cells; assay: cell-based or functional assay; remark: listed apart in the source

T6 sequence (A9YYE7 entry or part of it): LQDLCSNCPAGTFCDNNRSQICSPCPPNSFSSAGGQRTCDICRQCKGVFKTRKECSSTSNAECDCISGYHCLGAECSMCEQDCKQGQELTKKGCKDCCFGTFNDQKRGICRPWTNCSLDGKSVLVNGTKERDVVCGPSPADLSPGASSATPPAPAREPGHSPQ

Row | Binder | EC50 NFkB-luciferase, CHO-PDL1 cells, 6 h [1] | EC50 NFkB-luciferase, CHO-PDL1 cells, 24 h [2] | EC50 NFkB-luciferase, HCC827 with IFNy stimulation [3] | EC50 NFkB-luciferase, HCC827 without IFNy stimulation [3] | max. activation, NF-kB reporter gene, CHO-PD-L1, 24h [4] | rel. IC50 (urelumab/test), NF-kB reporter gene, CHO-PD-L1, 24h [4] | Kd [5] | koff [5] | kon [5] | Kd [6] | koff [6] | kon [6] | EC50 NFkB-luciferase, CHO-PDL1 cells [7] | other results
1 | B1 | 0.0564 µg/mL | 0.0808 µg/mL | 0.0175 µg/mL | 0.0136 µg/mL | 144% | 0.58 ratio | 1.3 nM | 0.00039 s⁻¹ | 300000 M⁻¹ s⁻¹ | 0.036 nM | 4.6e-05 s⁻¹ | 1.3e+06 M⁻¹ s⁻¹ | – | max. activation, HCC827 +IFNg, 24h [4]: 97%; rel. IC50 (urelumab/test), HCC827 +IFNg, 24h [4]: 3.01 ratio; rel. IC50 (urelumab/test), HCC827 -IFNg, 24h [4]: 3.5 ratio
2 | B2 | – | – | – | – | – | – | – | – | – | – | – | – | 0.0337 µg/mL | max. activation, NF-kB reporter gene, CHO-PD-L1 [4]: 432%; rel. IC50 (urelumab/test), NF-kB reporter gene, CHO-PD-L1 [4]: 2.35 ratio; Kd [8]: 0.07 nM; koff [8]: 0.00015 s⁻¹; kon [8]: 2.2e+06 M⁻¹ s⁻¹; Kd [9]: 4.2 nM; koff [9]: 0.0063 s⁻¹; kon [9]: 1.5e+06 M⁻¹ s⁻¹; Kd [10]: 6.9 nM; koff [10]: 0.01 s⁻¹; kon [10]: 1.5e+06 M⁻¹ s⁻¹; binding result [11]: no binding (tested: 0.12-90 nM)
3 | B3 | – | – | – | – | 189% | 0.09 ratio | 2.3 nM | 0.00042 s⁻¹ | 180000 M⁻¹ s⁻¹ | 0.056 nM | 6.5e-05 s⁻¹ | 1.2e+06 M⁻¹ s⁻¹ | – | –
4 | B4 | 0.0565 µg/mL | 0.0466 µg/mL | 0.0528 µg/mL | 0.0475 µg/mL | – | – | – | – | – | – | – | – | 0.0791 µg/mL | EC50 NFkB-luciferase, CHO-PDL1 cells [12]: 0.0865 µg/mL and 0.0795 µg/mL and 0.104 µg/mL; EC50 NFkB-luciferase, HCC827 without IFNy [13]: 0.212 µg/mL and 0.11 µg/mL and 0.112 µg/mL; EC50 NFkB-luciferase, HCC827 with IFNy [14]: 0.114 µg/mL and 0.145 µg/mL and 0.108 µg/mL; EC50 NFkB-luciferase, CHO-PDL1 cells, 6 h, + HSA [1]: 0.0777 µg/mL; Top of curve fit, NFkB-luciferase, CHO-PDL1 cells, 6 h, + HSA [1]: 106; EC50 NFkB-luciferase, CHO-PDL1 cells, 24 h, + HBA (so in the source) [2]: 0.0782 µg/mL; Top of curve fit, NFkB-luciferase, CHO-PDL1 cells, 24 h, + HBA (so in the source) [2]: 90.5
